Where a chain is given by its changes, count along the chain named. One block for each binder: values may come before it.
Columns and labels:
[1] = biological target: T1, VEGF-D (recombinant human; source not given) (human, UniProt O43915 89-205, limits assumed); test: SPR (BIAcore) off-rate ranking of scFv clones
T1 construct: also used here as target of IC50 values averaged over Source 1 and Source 2; also called vascular endothelial growth factor-D
T1 sequence: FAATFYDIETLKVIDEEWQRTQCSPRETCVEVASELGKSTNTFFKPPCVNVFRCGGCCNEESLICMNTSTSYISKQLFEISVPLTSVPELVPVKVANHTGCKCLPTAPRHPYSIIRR
Experimental: Screening based on scFv binding properties involved surface plasmon resonance (SPR) measurements with a BIAcore™ biosensor. scFv variants were expressed in 200 μL E. coli cultures and the supernatants used to generate crude off-rate only kinetics, which were assessed “relative” to 1A, or other variants.

[2] = biological target: T1, VEGF-D (recombinant human; source not …); test: SPR (BIAcore), VEGF-D amine-coupled on CM5, purified scFv as analyte
Experimental: (§1) scFv variants were fully characterized using a BIAcore™ biosensor. All isolated scFv samples were purified as monomer peaks by anti-FLAG affinity chromatography followed by gel filtration chromatography. BIAcore™ analysis was performed by directly immobilizing VEGF-D on a CM5 surface using amine coupling, with the scFv run as the analyte. Analysis of binding was carried out using the BIAevaluation kinetic analysis software. All repeats were separate protein expressions and were performed at 25° C.
(§2) Clones F61, A63, AR7, AW61, CJ37, DI126 and DA18 were produced in large-scale expression cultures and purified by anti-FLAG affinity chromatography and gel filtration. The binding kinetics against VEGF-D were then measured using a BIAcore™ biosensor as described previously.

[3] = biological target: T1, VEGF-D (recombinant human; source not …); test: SPR (BIAcore), KD against that of scFv 1A
Experimental: as §1, §2

[4] = biological target: T2, Source 1 VEGF-D, mature dimeric recombinant human VEGF-D (CSIRO) (human, UniProt O43915 89-205); test: SPR Protocol A, KD against that of Ig-1A
T2 construct: Whole entry named; also called Source 1 VEGF-D dimer; VEGF-D dimer
T2 sequence: T1 sequence
Experimental: (§3) Protocol A: The first assay format, Protocol A, used an assay system where IgGs were captured on a biosensor chip surface using an anti-human IgG (Fc) antibody and the Source 1 VEGF-D dimer run over the chip as the analyte in solution. This ensured that all IgG molecules were presented to the antigen in an active orientation.
(§4) The SPR protocol was slightly modified to compensate for the dimeric nature of the VEGF-D. Ig-1A or IgG variants were analyzed using an anti-human capture kit as described for Anti-human IgG (Fc) capture above, except that 1000 RU of the IgG or IgG variant was captured on the anti-human chip surface. […] The kinetics generated using this approach are accurate within the experimental parameters set. This standard assay protocol is best suited to studying 1:1 interactions and thus, may not be ideal for analyzing binding between the IgG variants and the VEGF-D dimer. In light of this, Protocol B was also used.

[5] = biological target: T2, Source 1 VEGF-D, mature dimeric …; test: SPR Protocol A: IgG captured by anti-human Fc, VEGF-D dimer as analyte
Experimental: as §3, §4

[6] = biological target: T3, Source 2 VEGF-D, purified recombinant human VEGF-D monomer (R&D Systems, Catalog Number 622-VD/CF) (human, UniProt O43915 93-201); test: cell-based or functional assay
T3 sequence: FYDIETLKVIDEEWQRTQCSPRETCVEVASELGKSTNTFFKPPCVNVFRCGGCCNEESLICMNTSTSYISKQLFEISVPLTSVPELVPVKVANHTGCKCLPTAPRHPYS

[7] = biological target: T2, Source 1 VEGF-D, mature dimeric …; test: cell-based or functional assay
[8] = biological target: T2, Source 1 VEGF-D, mature dimeric …; test: SPR Protocol B, KD against that of Ig-1A
Experimental: (§5) Protocol B: In the second assay format, Protocol B, the orientation of the IgGs and the VEGF-D antigen was reversed relative to Protocol A. The Source 1 VEGF-D dimer was immobilized directly on the chip surface by amine coupling and the murine anti-VEGF-D monoclonal antibody, Ig-1A or IgG variants flowed over this surface as analytes at concentrations of 4 nM, 1.33 nM, and 0.44 nM. This protocol allowed avidity effects to be controlled by reducing the density of dimeric VEGF-D immobilized on the chip and in effect reduce the bivalent binding properties of the system being analyzed.
(§6) All four flow cells on a CM5 chip were activated for 7 min at 25° C. using a mixture of NHS.EDC. Flow cell one was used as an unmodified (activated and blocked) reference against flow cells 2-4. Source 1 VEGF-D dimer was diluted to 1-3 μg/ml into 10 mM sodium acetate, pH 4, and injected over three surfaces for different lengths of time to achieve low ligand densities of 10, 15 and 20 RU to minimize avidity effects of the IgG. All surfaces were blocked for 7 min with ethanolamine (1M, pH 8.2) and pre-conditioned using five 10 s injections of 100 mM H₃PO₄; 1M NaCl. Immobilization steps were carried out at a flow rate of 30 μl/min using HBS-N running buffer.
(§7) All IgG binding experiments were performed at 25° C. using HBS-EP+ running buffer. Analytes (murine reference anti-VEGF-D monoclonal antibody and humanized variants) were injected for 200 s at a flow rate of 70 μl/min and dissociation monitored for 250 s. The antigen surfaces were regenerated with a 10 s pulse of 100 mM H₃PO₄; 1M NaCl. Analyte concentrations used for murine and humanized variants were 4 nM, 1.33 nM, and 0.44 nM. Data was processed using the reference surface and double referencing from blank injections. Binding constants for the IgG/antigen interactions were determined from the three antigen surfaces globally fitted to a 1:1 interaction model. Refractive index parameter was constant (RI=0).

[9] = biological target: T2, Source 1 VEGF-D, mature dimeric …; test: SPR Protocol B: VEGF-D dimer amine-coupled, IgG as analyte
Experimental: as §5, §6, §7

B1: scFv clone A63 (scFv)
scFv: QVQLVQSGAKVKQPGASVKASCKASGYTFTGYNMYWVRQAPGQGLEWMGYIDPYNGDTTYNQKFKGRVTMTTDTSTSTAYMELRSLRSDDTAVYYCARTSYYGGMDYWGRGTLVTVASGGGASGGGGSGGGGSDIVMTQTPLSSPVTLGQPASISCRSSQSLVHSNGNTYLHWLQQRPGQPPRLLIYKVSNRFSGVPDRFSGSGAGTDFTLKISRVEAEDVGVYYCSQSTHVPRTFGQGTKLEIKR
koff [1]: 0.00327 s⁻¹
Kd [2]: 4.83 nM
koff [2]: 0.0072 s⁻¹
kon [2]: 1.49e+06 M⁻¹ s⁻¹
Fold-improvement with respect to clone 1A [3]: 2.7 fold

B2: scFv clone AR74 (scFv)
scFv: B1 scFv with K10E, A20V, D73G, E82K, T99A
koff [1]: 0.00167 s⁻¹
Kd [2]: 2.12 nM
koff [2]: 0.00379 s⁻¹
kon [2]: 1.79e+06 M⁻¹ s⁻¹
Fold-improvement with respect to clone 1A [3]: 6.2 fold

B6: scFv clone CJ37 (scFv)
scFv: B1 scFv with K10E, A20V, E82K, Q238R
koff [1]: 0.00732 s⁻¹
Kd [2]: 3.55 nM
koff [2]: 0.00995 s⁻¹
kon [2]: 2.81e+06 M⁻¹ s⁻¹
Fold-improvement with respect to clone 1A [3]: 3.7 fold

B8: scFv clone AW61 (scFv)
scFv: B1 scFv with K10E, A20V, V68A, E82K
koff [1]: 0.00222 s⁻¹
Kd [2]: 4.23 nM
koff [2]: 0.00828 s⁻¹
kon [2]: 1.96e+06 M⁻¹ s⁻¹
Fold-improvement with respect to clone 1A [3]: 3.1 fold

B9: scFv clone DI26 (scFv)
scFv: B1 scFv with N55S
notes: also called DI126
koff [1]: 0.00361 s⁻¹
Kd [2]: 3.12 nM
koff [2]: 0.0093 s⁻¹
kon [2]: 2.98e+06 M⁻¹ s⁻¹
Fold-improvement with respect to clone 1A [3]: 4.2 fold

B13: humanized IgG antibody derived from clone HH41 (antibody, V domains shown)
VH: QVQLVQSGAEVKQPGASVKVSCKASGYTFTGYNMYWVRQAPGQGLEWMGYIDPYNGDTTYNQKFKGRVTMTTDTSTSTAYMKLRSLRSDDTAVYYCARTSYYGGMDYWGRGTLVTVAS
VL: DIVMTQTPLSSPVTLGQPASISCRSSQSLVHGNGNTYLHWLQQRPGQPPRLLIYKVSNRFSGVPDRFSGSGAGTDFTLKISRVEAEDVGVYYCSQSTHVPRTFGQGTKLEIKR
notes: IgG; also called HH41#1; HH41#2
Fold-improvement with respect to Ig-1A [4]: 1.9 fold
Kd [5]: 0.364 nM
koff [5]: 0.00019 s⁻¹
kon [5]: 530000 M⁻¹ s⁻¹
rank in the VEGFR-3-Ba/F3 bioassay [6]: 6 rank
rank in the VEGFR-3-Ba/F3 bioassay [7]: 8 rank
Fold-improvement with respect to Ig-1A [8]: 4.9 fold
Kd [9]: 0.36 nM
koff [9]: 0.0017 s⁻¹
kon [9]: 4.7e+06 M⁻¹ s⁻¹

B14: humanized IgG antibody derived from clone HX28 (antibody, V domains shown)
VH: B13 VH with E10K, V20A, N55S, K82E
VL: B13 VL with G32S, D65G
notes: IgG
Fold-improvement with respect to Ig-1A [4]: 1.8 fold
Kd [5]: 0.383 nM
koff [5]: 0.00014 s⁻¹
kon [5]: 360000 M⁻¹ s⁻¹
rank in the VEGFR-3-Ba/F3 bioassay [6]: 1 rank
rank in the VEGFR-3-Ba/F3 bioassay [7]: 1 rank

B15: humanized IgG antibody derived from clone HH69 (antibody, V domains shown)
VH: B13 VH with E10K, V20A, N55S, K82E
VL: B13 VL with S11G, G32S, Q105R
notes: IgG
Fold-improvement with respect to Ig-1A [4]: 3.5 fold
Kd [5]: 0.201 nM
koff [5]: 7.7e-05 s⁻¹
kon [5]: 390000 M⁻¹ s⁻¹
rank in the VEGFR-3-Ba/F3 bioassay [6]: 3 rank
rank in the VEGFR-3-Ba/F3 bioassay [7]: 3 rank
Fold-improvement with respect to Ig-1A [8]: 5.3 fold
Kd [9]: 0.33 nM
koff [9]: 0.001 s⁻¹
kon [9]: 3e+06 M⁻¹ s⁻¹

B16: humanized IgG antibody derived from clone HW78 (antibody, V domains shown)
VH: B13 VH with S25R, S77G
VL: B13 VL with G32S
notes: IgG
Fold-improvement with respect to Ig-1A [4]: 2 fold
Kd [5]: 0.342 nM
koff [5]: ~0.00018 s⁻¹
kon [5]: 510000 M⁻¹ s⁻¹
rank in the VEGFR-3-Ba/F3 bioassay [6]: 7 rank
rank in the VEGFR-3-Ba/F3 bioassay [7]: 4 rank
Fold-improvement with respect to Ig-1A [8]: 5.5 fold
Kd [9]: 0.32 nM
koff [9]: 0.0018 s⁻¹
kon [9]: 5.4e+06 M⁻¹ s⁻¹

Results, then the binder that gave them:

koff [1]: 0.0046 s⁻¹
B3: scFv clone W25 (scFv)
scFv: B1 scFv with K10E, A20V, E46G

koff [1]: 0.00556 s⁻¹
B4: scFv clone Z23 (scFv)
scFv: B1 scFv with K10E, A20V, E46G, G131R
notes: G131R lies in the scFv linker

koff [1]: 0.00611 s⁻¹
B5: scFv clone W36 (scFv)
scFv: B1 scFv with K10E, A20V, E46G

koff [1]: 0.00335 s⁻¹
Kd [2]: 3.31 nM
koff [2]: 0.00899 s⁻¹
kon [2]: 2.72e+06 M⁻¹ s⁻¹
Fold-improvement with respect to clone 1A [3]: 4 fold
B7: scFv clone F61 (scFv)
scFv: B1 scFv with K10E, A20V, E82K

koff [1]: 0.00497 s⁻¹
B10: scFv clone Z49 (scFv)
scFv: B1 scFv with K10E, A20V, D89G

koff [1]: 0.0072 s⁻¹
B11: scFv clone Q30 (scFv)
scFv: B1 scFv with K10E, A20V, T112A

koff [1]: 0.00794 s⁻¹
B12: scFv clone V37 (scFv)
scFv: B1 scFv with K10E, A20V, A40V

From patent publication US20120093811A1 (published 2012)
